Laboratory results: US20240117018A1

How the values were obtained:
Assay in all cases: cell-based or functional assay
[1] = target: HIV-1 Env of pseudovirus Q23.17 (HIV-1)
[2] = target: HIV-1 Env of pseudovirus TRJO4551.58 (HIV-1)
[3] = target: HIV-1 Env of pseudovirus HIV-001428-2.42 (HIV-1)
[4] = target: HIV-1 Env of pseudovirus Q769.d22 (HIV-1)
[5] = target: HIV-1 Env of pseudovirus CAAN5342.A2 (HIV-1)
[6] = target: HIV-1 Env of pseudovirus 246F C1G (HIV-1)
[7] = target: HIV-1 Env of pseudovirus TRO.11 (HIV-1)
[8] = target: HIV-1 Env of pseudovirus MS208.A1 (HIV-1)
[9] = target: HIV-1 Env of pseudovirus ZM109F.PB4 (HIV-1)
[10] = target: HIV-1 Env of pseudovirus 1394C9G1(Rev-) (HIV-1)
[11] = target: HIV-1 Env of pseudovirus PVO.4 (HIV-1)
[12] = target: HIV-1 Env of pseudovirus ZM135M.PL10a (HIV-1)
[13] = target: HIV-1 Env of pseudovirus HIV-16845-2.22 (HIV-1)
[14] = target: HIV-1 Env of pseudovirus Ce2010_F5 (HIV-1)
[15] = target: HIV-1 Env of pseudovirus 6244_13_B5_4576 (HIV-1)
[16] = target: HIV-1 Env of pseudovirus Ce0393_C3 (HIV-1)
[17] = target: HIV-1 Env of pseudovirus 6535.3 (HIV-1)
[18] = target: HIV-1 Env of pseudovirus Ce703010054_2A2 (HIV-1)
[19] = target: HIV-1 Env of pseudovirus CNE30 (HIV-1)
[20] = target: HIV-1 Env of pseudovirus CNE52 (HIV-1)
[21] = target: HIV-1 Env of pseudovirus WITO4160.33 (HIV-1)
[22] = target: HIV-1 Env of pseudovirus 62357_14_D3_4589 (HIV-1)
[23] = target: HIV-1 Env of pseudovirus Ce0682_E4 (HIV-1)
[24] = target: HIV-1 Env of pseudovirus 1054_07_TC4_1499 (HIV-1)
[25] = target: HIV-1 Env of pseudovirus SC05_8C11_2344 (HIV-1)
[26] = target: HIV-1 Env of pseudovirus Ce704809221_1B3 (HIV-1)
[27] = target: HIV-1 Env of pseudovirus T250-4 (HIV-1)
[28] = target: HIV-1 Env of pseudovirus CNE8 (HIV-1)
[29] = target: HIV-1 Env of pseudovirus CAP210.2.00.E8 (HIV-1)
[30] = target: HIV-1 Env of pseudovirus 6240_08_TA5_4622 (HIV-1)
[31] = target: HIV-1 Env of pseudovirus AC10.0.29 (HIV-1)
[32] = target: HIV-1 Env of pseudovirus Ce1172_H1 (HIV-1)
[33] = target: HIV-1 Env of pseudovirus CAP45.2.00.G3 (HIV-1)
[34] = target: HIV-1 Env of pseudovirus ZM247v1(Rev-) (HIV-1)
[35] = target: HIV-1 Env of pseudovirus HIV-16055-2.3 (HIV-1)
[36] = target: HIV-1 Env of pseudovirus CNE5 (HIV-1)
[37] = target: HIV-1 Env of pseudovirus THRO4156.18 (HIV-1)
[38] = target: HIV-1 Env of pseudovirus ZM233M.PB6 (HIV-1)

For PGT128 (antibody), the neutralization IC50 [1] was 0.009 µg/mL, the neutralization IC80 [1] was 0.024 µg/mL and the neutralization IC50 [2] was 0.018 µg/mL. The neutralization IC80 [2] was 0.041 µg/mL, the neutralization IC50 [3] was 0.026 µg/mL and the neutralization IC80 [3] was 0.095 µg/mL. It also gave a neutralization IC50 [4] of over 50 µg/mL, a neutralization IC80 [4] of over 50 µg/mL and a neutralization IC50 [5] of 0.514 µg/mL. For the same substance, the neutralization IC80 [5] was over 50 µg/mL, the neutralization IC50 [6] was 0.005 µg/mL and the neutralization IC80 [6] was 0.014 µg/mL. It also gave a neutralization IC50 [7] of 0.019 µg/mL, a neutralization IC80 [7] of 0.045 µg/mL and a neutralization IC50 [8] of over 50 µg/mL. The neutralization IC80 [8] was over 50 µg/mL, the neutralization IC50 [9] was over 50 µg/mL and the neutralization IC80 [9] was over 50 µg/mL. The neutralization IC50 [10] was 0.011 µg/mL, the neutralization IC80 [10] was 0.034 µg/mL and the neutralization IC50 [11] was 0.011 µg/mL. The neutralization IC80 [11] was 0.028 µg/mL, the neutralization IC50 [12] was over 50 µg/mL and the neutralization IC80 [12] was over 50 µg/mL. It also gave a neutralization IC50 [13] of 0.181 µg/mL, a neutralization IC80 [13] of 0.834 µg/mL and a neutralization IC50 [14] of over 50 µg/mL. For the same substance, the neutralization IC80 [14] was over 50 µg/mL, the neutralization IC50 [15] was 0.02 µg/mL and the neutralization IC80 [15] was 0.076 µg/mL. It also gave a neutralization IC50 [16] of over 50 µg/mL, a neutralization IC80 [16] of over 50 µg/mL and a neutralization IC50 [17] of 0.004 µg/mL. For the same substance, the neutralization IC80 [17] was 0.016 µg/mL, the neutralization IC50 [18] was over 50 µg/mL and the neutralization IC80 [18] was over 50 µg/mL. The neutralization IC50 [19] was 2.06 µg/mL, the neutralization IC80 [19] was 12.6 µg/mL and the neutralization IC50 [20] was over 50 µg/mL. The neutralization IC80 [20] was over 50 µg/mL, the neutralization IC50 [21] was over 50 µg/mL and the neutralization IC80 [21] was over 50 µg/mL. It also gave a neutralization IC50 [22] of 1.14 µg/mL, a neutralization IC80 [22] of over 50 µg/mL and a neutralization IC50 [23] of over 50 µg/mL. For the same substance, the neutralization IC80 [23] was over 50 µg/mL, the neutralization IC50 [24] was 0.035 µg/mL and the neutralization IC80 [24] was 0.312 µg/mL. For the same substance, the neutralization IC50 [25] was 0.017 µg/mL, the neutralization IC80 [25] was 0.041 µg/mL and the neutralization IC50 [26] was 0.026 µg/mL. It also gave a neutralization IC80 [26] of 0.072 µg/mL, a neutralization IC50 [27] of under 0.001 µg/mL and a neutralization IC80 [27] of 0.007 µg/mL. For the same substance, the IC50 (Titer in TZM.bl cells) [28] was 0.019 µg/mL, the IC80 (Titer in TZM.bl cells) [28] was 0.052 µg/mL and the neutralization IC50 [29] was over 50 µg/mL. It also gave a neutralization IC80 [29] of over 50 µg/mL, a neutralization IC50 [30] of 0.019 µg/mL and a neutralization IC80 [30] of 0.055 µg/mL. The neutralization IC50 [31] was 0.008 µg/mL, the neutralization IC80 [31] was 0.018 µg/mL and the neutralization IC50 [32] was 0.013 µg/mL. It also gave a neutralization IC80 [32] of 0.038 µg/mL, a neutralization IC50 [33] of over 50 µg/mL and a neutralization IC80 [33] of over 50 µg/mL. For the same substance, the neutralization IC50 [34] was 0.021 µg/mL, the neutralization IC80 [34] was 0.081 µg/mL and the neutralization IC50 [35] was over 50 µg/mL. The neutralization IC80 [35] was over 50 µg/mL, the IC50 (Titer in TZM.bl cells) [36] was 0.018 µg/mL and the IC80 (Titer in TZM.bl cells) [36] was 0.253 µg/mL. The neutralization IC50 [37] was over 50 µg/mL, the neutralization IC80 [37] was over 50 µg/mL and the neutralization IC50 [38] was over 50 µg/mL. It also gave a neutralization IC80 [38] of over 50 µg/mL.
